From the nanobody polyreactivity screen of Harvey et al. (2022)

Assay: yeast display, Sf9 membrane polyspecificity reagent, FACS + sequencing; frameworks hold sequencing errors
Method in brief: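 Galactose induction of a Saccharomyces cerevisiae BJ5465 synthetic nanobody display library ran 36–48 hours. The cells were then stained for 1 hour at 4 °C with 10% biotinylated, detergent-solubilized Sf9 membrane reagent, pulled down on streptavidin microbeads and FACS-sorted into low and high (top ~1%) gates on expression and reagent-binding fluorescence. Labels for polyreactivity follow the gate of origin.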

Sequence | polyreactivity (PSR sort gate)
QVQLVESGGGLVQARGSLRLSCAASGSTFSYYTMGWYREAPGKERELVAAITRRGDSTYADSVKGRFTISRDNAMNTVYLQLNSLKPEDTAVYYFAADDYVGVSGMDYWGQGTQVTVSS | low polyreactivity
QVQLVESGGGLVQARGSLRLSCAASGSTLSPYVMGWYRQAPGKERELVATISRSGGRTYYADSVKGRFTISRDNAKNTVYLQMNSLKPEDTAVYYCAARTYYWGALIVSYDYWGQGTQGTVSS | low polyreactivity
QVQLVESGGGLVQARGSLRLSCAATGFTIWQNAMGWYRQPQGKERELVAGIRLSGGSTYADSVKGRFTIARDNAKNTVYLQMNSLKPEDTAVYYCAARIAGNYRYRSLRYDYWGQGTQVTVSS | high polyreactivity
QVQLVESGGGLVQARGSLRLSCAPSGFTFEAYAMGWYRQAPGKERELVAAISSSDTTSYADSVKGRFTISRDNAKNTVYLQMNSLKREDTAVYYCAADDWYTGYDYWGQGTQVTVSS | high polyreactivity
QVQLVESGGGLVQARGSLRLSCAPSGSIFDHNAMGWYRQAPGKESEFVAAISSSGGSTNYADSVKGRFTISRDIAKNTVYLQMNSLKPEDTAVYYCAAYPDRYVELGYWGQGTQVTVSS | low polyreactivity
QVQLVESGGGLVQARGSLRLSCASSGSTFSRYAMGWYRQAPGKERELVAGISWSGGNTYYADSVKGRFTISRDNAKNTVYLQMNSLKPEDTAVYYCAADFLDYWGVYGWAEYEYWGQGTQVTVSS | low polyreactivity
QVQLVESGGGLVQARGSLRLSCSASGSIIDIYAMGWYRQAPGKERELVAAITGGGSTNYADSVKGRFTISRDNAKNTVYLQMNILKPEDTAVYYCAAGTYLNGGGEYWGQGTQVTVSS | low polyreactivity
QVQLVESGGGLVQARGSLRLSSAASGIIFCHYVMGWYRQAPGKERELVAAISSRGGNTYYADSVKWRFTISRDNAKNTVYFQMNSLKPEDTAVYYCNARGGARAWYFAYNYWGHGTQVTVSS | high polyreactivity
QVQLVESGGGLVQARGSLRLSSAASGRTFHYNAMGWYRQAPGKERELVAAISFNGGGTYYADSVKGRFTISRDNAKNTVYLQMNCLKTEDTAVYYCATDVPSRYDYWGQGTQVTVSS | low polyreactivity
QVQLVESGGGLVQARGSLRLSSAASGSTFYDYAMGWYRHAPGKERELVAAISGNGDSTYYADSVKGRFTISRDNAKNTVYLQMNSLNPEDTAVYYCAAYLGWGYDYWGQGTQVTVSS | low polyreactivity
QVQLVESGGGLVQARGSLRLSSAASRSTFNVYAMGWYRQAPGKERELVAGIRDSDGSTNYADSVKGRFTISRDNAKNTVYLQMNSLKPEDTAVYYCAADLYDINWSVWLDYWGQGTQVTVSS | low polyreactivity
QVQLVESGGGLVQAVCSLRLICAASGLTFGGYSMGWYRQAPAKERELVAAISRSCGSTYYADSVKGRFTISRDNAKNTVFLQMNSLKPEDTAVYYCNAGRDTKYDYWGQGTQVTVSS | low polyreactivity
QVQLVESGGGLVQAVGSLLLSCAASGITFRYYAMGWYRQAPGKERELVARITTDGSTHYADSVMGRFTISRDNAKNTVYLQMNSLKPEDTAVYYCNVDGYYLFVRGYEYWGLGTQVTVSS | low polyreactivity
QVQLVESGGGLVQAVGSLRLSCAASGFIFAQNARGGSRPAPGKERELVAAIYGSGVRTYYADSVKGRFTISRDNAKNTVYLQMNSLKPEDTAVYYCAKDTYLQIYQYGYWGQGTQVTVSS | high polyreactivity
QVQLVESGGGLVQAVGSLRLSCAASGFIFGTYAMGWYRQAPGKERELVAVITRGGTTYYADSVKGRFTISRDNAKNTVYLQMNSLKPEDTAVYYCAADPWALFVGDEYYYWGQGTQVTVSS | low polyreactivity
QVQLVESGGGLVQAVGSLRLSCAASGFTFSVNAMGWYRQAPGKERELVAAITRSGGRTYYADSVKGRFTISRDNAQNTVYLQMNSLKPEDTAVYYCATPRSRTDGYDYWGQGTQVTVSS | high polyreactivity

Sequence | polyreactivity (PSR sort gate)
QVQLVESGGGLVQAVGSLRLSCAASGFTYSPNAMGWYRQAPGKERELVATISWNGGRTHYADSVKGRFTISRDNAKNTVYLQMNSLKPEDTAVYDCNVVRATGRYYYWGQGTQVTVSS | high polyreactivity
QVQLVESGGGLVQAVGSLRLSCAASGLIFKKYAMGWYRQAPGKERELVATITSRGGSTYYADSVKGRFTISRDNAKNTVYLQMNSLKPEDTAVYYCAARFGFYTAYTYNYWGQGTQVTVSS | high polyreactivity
QVQLVESGGGLVQAVGSLRLSCAASGRIFRYYAMGWYRQATGKESELVAAISDSSGYTYYADSVKGRFTISRDNAKNTVYLQMISLKPEDTAVYYCRDYLGSGYYYWGQGTQVTVSS | high polyreactivity
QVQLVESGGGLVQAVGSLRLSCAASGRIFYPYAMGWYRQAPGKERELVAVITSGTGTYYADSVKGRFTISRDNAKNTVYLQMNSLKQEDTAVYYCAADRWYYRHRSSSYGYDYWGQGTQVTVSS | high polyreactivity
QVQLVESGGGLVQAVGSLRLSCAASGRIIVRNAMGWYRQAPGKERELVAAISRSGGSTYYADSVKGRFTLSRDNAKNTVYLQMNSLIPEYTAVYYCAADYPITYTSKFNYWGHGTQVTVSS | high polyreactivity
QVQLVESGGGLVQAVGSLRLSCAASGRTFRTYTMGWYRQAPGKERELVAAISRGGSTNYADSLKGRFTISRDNAKNTVYLQMNSLKPEDTAVYYCNAKASFWSPYDYWGQGTQVTVSS | high polyreactivity
QVQLVESGGGLVQAVGSLRLSCAASGRTFYSYAMGWYRQAPGKERELVAAISRTGGSTYYADSVKGRFTISLDNAKNTVYLQMNSLKPEDTAVYYCAAVYRRNEFGYWGQGTQVTVSS | high polyreactivity
QVQLVESGGGLVQAVGSLRLSCAASGYTFVIYAMGWYRQAPGKERELVAAITTIGGRTYYADSVKGRFTISRDNAKNTVYLQMISLKPEDTAVYYCAADIRSNRLYDGGYWGLGTQVTVSS | low polyreactivity
QVQLVESGGGLVQAVGSLRLSCADSGRIFYGYDMGWYRQAPGKERELVAAITWRGGTFYADSVKGRFTISRDNEKKTVYLQMNSLKPEDTAVYYCSARVSSYGRYDYWGQGTQVTVSS | high polyreactivity
QVQLVESGGGLVQAVGSLRLSCDASGLTFNSNAMGWYIQAHGKDRELVATISRGGTTNYADSVKGRFTISRDNAKNTVYLQMNSLKPEDTAVYYCNALRGSRYDYWGQGTQVTVSS | high polyreactivity
QVQLVESGGGLVQAVGSLRLSGAASGSIFQYTAMGRYRQAPGKERELVAAISSRGGIRYYADSVKGRFTISRDNAKYTVFLQMNSLKPEDTAVYYCAAEAYYSDVRWSEYWGQGTQVTVSS | high polyreactivity
QVQLVESGGGLVQAVGSLRLSSAASGFIFWYYAMGWYRQAPGKERELVAAISSGGGTNYADSVKGRFTISRDNAKNTVYLQMNSLKPEDYAVYYCAAYGPLTGYDYWGQGTQVTVSS | low polyreactivity
QVQLVESGGGLVQAVGSLSLICAASGSTFLKYTMGWYRQAPWKERELVAAISKSGGSTYYADSVKGRFTISRDNAKNTVYLQMNSLKPEDTAVYYCAKGRYWVSSYGYGYWVQGTQVTVSS | high polyreactivity
QVQLVESGGGLVQEGCSLRLTCAASGSIFYYYAMGWYRQAPRKERELVATITWNGAGTFYADSVKGRFTISRDNAKNTVYLQMNSLKPEDTAVYYCAASWYGESGYDYWGQGTQVTVSS | low polyreactivity
QVQLVESGGGLVQEGGILPLSCAASGRIFGTYAMGWYRQAPGKERELVAAISSSGTSTYYADSVKGRFTISRDNAKNTVYLPMNSLKPEDTAVYYCAARYPRTAYDYWGQCTQVTVSS | low polyreactivity
QVQLVESGGGLVQEGGILRLSCAASGLTFYGYAMGWYRQAPGKERELVAAITSGDSTYYADSVKGRFTISRDNAKNTVYLQMNSLKPEDTAVYYCAAVGGYPRYGYWGQGTQVTVSS | high polyreactivity
